Experimental data taken from patent US20220289820.

System: D11-CD8stk-IL2Rg_A5-Hinge-IL2Rb
Sequence (chain, as listed by the source, chain 1 of 2): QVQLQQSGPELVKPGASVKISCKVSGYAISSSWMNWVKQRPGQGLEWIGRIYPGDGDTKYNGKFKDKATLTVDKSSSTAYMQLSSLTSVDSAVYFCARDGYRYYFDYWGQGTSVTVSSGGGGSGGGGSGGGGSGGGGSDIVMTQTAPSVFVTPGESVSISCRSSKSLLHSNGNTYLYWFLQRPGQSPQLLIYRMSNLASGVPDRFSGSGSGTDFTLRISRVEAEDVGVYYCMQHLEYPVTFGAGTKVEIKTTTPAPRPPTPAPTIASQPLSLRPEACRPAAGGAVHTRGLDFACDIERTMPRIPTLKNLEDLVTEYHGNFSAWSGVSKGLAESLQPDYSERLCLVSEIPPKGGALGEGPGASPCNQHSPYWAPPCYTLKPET
Sequence (chain, as listed by the source, chain 2 of 2): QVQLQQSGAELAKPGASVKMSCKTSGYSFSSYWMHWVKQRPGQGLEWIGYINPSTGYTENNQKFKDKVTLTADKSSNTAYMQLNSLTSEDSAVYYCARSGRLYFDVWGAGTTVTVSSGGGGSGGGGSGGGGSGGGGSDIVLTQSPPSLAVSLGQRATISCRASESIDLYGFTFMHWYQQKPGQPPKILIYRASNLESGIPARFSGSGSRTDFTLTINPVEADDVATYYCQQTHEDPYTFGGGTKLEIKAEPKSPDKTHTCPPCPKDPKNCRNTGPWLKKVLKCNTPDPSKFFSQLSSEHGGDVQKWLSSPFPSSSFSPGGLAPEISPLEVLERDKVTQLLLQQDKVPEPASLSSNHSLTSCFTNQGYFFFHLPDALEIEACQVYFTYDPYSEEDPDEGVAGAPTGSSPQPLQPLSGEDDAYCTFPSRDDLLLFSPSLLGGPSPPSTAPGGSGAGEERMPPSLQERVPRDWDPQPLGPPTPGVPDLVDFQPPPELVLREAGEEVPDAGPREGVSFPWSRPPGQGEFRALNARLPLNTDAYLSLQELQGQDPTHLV

## prostate-specific antigen (PSA)
  phosphorylation of Y694 of STAT5 (phosphoflow): In the cells expressing the PSA CCR, the presence of PSA lead to increasing STAT5 phosphorylation with time
